Among the data in the RNAGym collection of RNA variant scans (doi:10.7554/elife.80360) are self-cleavage values, retold here.

The labels stand for the following.
B1: CPEB3 Ribozyme (parent)
chain: GGGGGCCACAGCAGAAGCGUUCACGUCGCGGCCCCUGUCAGAUUCUGGUGAAUCUGCGAAUUCUGCUGU

In the data set the parent is B1. Kind of data set: self-cleavage, relative activity (ratio to wild type); higher = more cleavage; co-transcriptional.
In the case of G31U C39U, the self-cleavage was 0.357.

For the variant G31U C39A, the self-cleavage stood at 0.319.

Regarding G31U C39G, the self-cleavage was found to be 0.437.

For the variant G31C C39A, the self-cleavage was determined as 0.186.

Take G31C C39U: the self-cleavage amounted to 0.197.

As for G31C C39G, the self-cleavage turned out to be 0.235.

Consider C32A C54A, for which the self-cleavage came out at 0.328.

For C32A C54U, the self-cleavage stood at 0.803.

Regarding C32A C54G, the self-cleavage came to 0.333.

On to G31C G47A, for which the self-cleavage was 0.249.

Take G31C G47U: the self-cleavage came to 0.239.

In the case of G31C G47C, the self-cleavage turned out to be 0.271.

For the variant G31U G65C, the self-cleavage was found to be 0.358.

As for G31U G65U, the self-cleavage is 0.352.

For C32A U43C, the self-cleavage was 0.441.

On to C32A U43A, for which the self-cleavage worked out at 0.345.

In the case of G31C C54G, the self-cleavage stood at 0.183.

In the case of G31C C54A, the self-cleavage was found to be 0.189.

On to C32G U36G, for which the self-cleavage is 0.191.

Consider C32G G65C, for which the self-cleavage amounted to 0.224.

Regarding C32G G65A, the self-cleavage was determined as 0.288.

As for C32A A42C, the self-cleavage came to 0.342.

Consider C32A A42U, for which the self-cleavage came out at 0.504.

Turning to C32G C63A, the self-cleavage was 0.3.

On to G31U A51G, for which the self-cleavage came to 0.636.

Consider C32G A52C, for which the self-cleavage amounted to 0.435.

For C32A A52U, the self-cleavage was 0.645.

On to C32A A52C, for which the self-cleavage was 0.374.

As for G31U A52U, the self-cleavage turned out to be 0.655.

Turning to G31U A52G, the self-cleavage came to 0.775.

For the variant C32U A52U, the self-cleavage came to 0.987.

With C32U A52G, the self-cleavage was determined as 0.967.

As for C32U C45A, the self-cleavage amounted to 0.983.

For the variant C32U C45G, the self-cleavage came out at 0.975.

In the case of C32U C45U, the self-cleavage is 1.01.

G31C U61C: the self-cleavage is 0.188.

With G31C U61A, the self-cleavage stood at 0.179.

Regarding G31C U61G, the self-cleavage was found to be 0.158.

For G31C U62G, the self-cleavage is 0.228.

In the case of C32U G50U, the self-cleavage stood at 0.978.

For the variant C32U G50A, the self-cleavage came to 0.995.

As to G31C U46C, the self-cleavage amounted to 0.164.

On to G31C U46G, for which the self-cleavage was found to be 0.205.

Turning to G31C U46A, the self-cleavage was found to be 0.263.

In the case of C32G C66G, the self-cleavage was determined as 0.227.

G31C A60C: the self-cleavage is 0.21.

As for G31C A60U, the self-cleavage turned out to be 0.144.

Regarding G31C A60G, the self-cleavage is 0.226.

With C32A U55A, the self-cleavage amounted to 0.622.

As to C32A U55G, the self-cleavage amounted to 0.451.

Turning to C32A U55C, the self-cleavage is 0.393.

C32G C39U: the self-cleavage was 0.332.

For the variant C32A U46C, the self-cleavage came out at 0.776.

For the variant C32A U46G, the self-cleavage stood at 0.729.

Consider C32A U46A, for which the self-cleavage amounted to 0.574.

For the variant C32G U38A, the self-cleavage turned out to be 0.443.

Consider C32G U38C, for which the self-cleavage was determined as 0.235.

Turning to C32G U38G, the self-cleavage was 0.207.

With G31C U36G, the self-cleavage amounted to 0.475.

In the case of G31C U36A, the self-cleavage was found to be 0.155.

Regarding G31C U36C, the self-cleavage was found to be 0.203.

With G31C G68U, the self-cleavage was found to be 0.392.

As for G31C G68C, the self-cleavage was determined as 0.414.

Turning to G31U U43A, the self-cleavage worked out at 0.443.

For the variant G31U U43C, the self-cleavage worked out at 0.393.

With G31U U43G, the self-cleavage was found to be 0.454.

As to G31U U69A, the self-cleavage was 0.876.

Turning to G31U U69C, the self-cleavage was 1.02.

In the case of C32U C57U, the self-cleavage amounted to 0.327.

For C32U C57G, the self-cleavage turned out to be 0.335.

For G31C, the self-cleavage worked out at 0.255.

As for G31U, the self-cleavage came to 0.782.

As to C32A C57U, the self-cleavage is 0.25.

For C32A C57G, the self-cleavage was 0.27.

Turning to C32A C35A, the self-cleavage was 0.26.

Take C32U A60G: the self-cleavage is 0.906.

For C32A G65A, the self-cleavage was found to be 0.638.

Consider G31U C34A, for which the self-cleavage worked out at 0.232.

In the case of G31U C34G, the self-cleavage was determined as 0.237.

Take C32A G58C: the self-cleavage is 0.841.

In the case of C32A G58A, the self-cleavage came to 0.693.

For the variant G31C U55C, the self-cleavage came to 0.225.

As to G31C U55A, the self-cleavage was 0.188.

In the case of G31C C35A, the self-cleavage came to 0.241.

With G31C C35U, the self-cleavage came to 0.189.

Turning to G31C A42G, the self-cleavage is 0.277.

With G31C A42U, the self-cleavage was 0.18.

Take G31C A59C: the self-cleavage was determined as 0.178.

In the case of G31C A59U, the self-cleavage amounted to 0.24.

Regarding G31U C35G, the self-cleavage worked out at 0.252.

C32A U61G: the self-cleavage came out at 0.421.

Consider C32A U61C, for which the self-cleavage was 0.365.

As for C32A U61A, the self-cleavage worked out at 0.406.

For C32G U69C, the self-cleavage was determined as 0.839.

Regarding G31U A60G, the self-cleavage is 0.277.

For the variant G31U A60U, the self-cleavage was 0.229.

Take C32G C54G: the self-cleavage worked out at 0.335.

For the variant C32G C54A, the self-cleavage came out at 0.356.

On to C32G G58A, for which the self-cleavage was found to be 0.44.

Consider C32G G48A, for which the self-cleavage was found to be 0.62.

On to C32G G48U, for which the self-cleavage is 0.562.

On to G31C A52C, for which the self-cleavage worked out at 0.266.

With G31C A52G, the self-cleavage was 0.197.

Regarding G31C A52U, the self-cleavage stood at 0.184.

As to C32G G37C, the self-cleavage worked out at 0.184.

In the case of C32G G37A, the self-cleavage turned out to be 0.195.

As for C32G G37U, the self-cleavage worked out at 0.149.

Consider C32A U64G, for which the self-cleavage was found to be 0.726.

Take C32A U64C: the self-cleavage was found to be 0.499.

Take C32A U64A: the self-cleavage came out at 0.519.

Regarding G31U U55G, the self-cleavage is 0.274.

For G31U U55C, the self-cleavage stood at 0.459.

With G31C U38G, the self-cleavage was found to be 0.191.

As for G31C U38C, the self-cleavage amounted to 0.191.

With G31C U69G, the self-cleavage stood at 0.444.

For C32G A51C, the self-cleavage came out at 0.353.

On to C32G A51U, for which the self-cleavage is 0.419.

As to C32A U38G, the self-cleavage was determined as 0.271.

Take C32A U38C: the self-cleavage turned out to be 0.504.

C32G A60G: the self-cleavage is 0.267.

Consider C32U G37U, for which the self-cleavage turned out to be 0.292.

For G31U C32U, the self-cleavage is 0.32.

Turning to G31U C32G, the self-cleavage was found to be 0.177.

For C32G U49C, the self-cleavage was 0.543.

C32G U49A: the self-cleavage is 0.658.

G31U A40G: the self-cleavage was found to be 0.457.

For G31U A40C, the self-cleavage is 0.254.

Take C32G U53A: the self-cleavage is 0.266.

Consider C32U C34A, for which the self-cleavage worked out at 0.541.

For C32G A40C, the self-cleavage is 0.308.

With C32G A40G, the self-cleavage worked out at 0.442.

As to C32G A40U, the self-cleavage worked out at 0.281.

For G31U C57A, the self-cleavage came out at 0.208.

For G31U C57U, the self-cleavage is 0.229.

With G31U U44C, the self-cleavage was determined as 0.618.

Consider C32A A40C, for which the self-cleavage turned out to be 0.321.

With C32A A40U, the self-cleavage stood at 0.376.

For C32A A40G, the self-cleavage came to 0.711.

On to C32A A59C, for which the self-cleavage is 0.372.

Turning to C32A A59G, the self-cleavage came to 0.61.

Regarding C32U G41A, the self-cleavage was determined as 0.845.

For the variant C32A U53C, the self-cleavage was determined as 0.455.

Turning to C32A U53G, the self-cleavage was determined as 0.419.

On to C32A U62C, for which the self-cleavage stood at 0.339.

On to C32A G37C, for which the self-cleavage was 0.336.

Take C32A U36C: the self-cleavage is 0.593.

For the variant C32A U36A, the self-cleavage was determined as 0.275.

Turning to C32G U55C, the self-cleavage stood at 0.258.

On to C32G U55G, for which the self-cleavage came to 0.218.

Consider G31U U64C, for which the self-cleavage was determined as 0.427.

Consider G31U U64A, for which the self-cleavage is 0.446.

For G31C G48C, the self-cleavage came to 0.222.

As to G31C G48A, the self-cleavage worked out at 0.24.

In the case of G31C G48U, the self-cleavage turned out to be 0.247.

Take C32U C54A: the self-cleavage worked out at 0.861.

On to C32U C54U, for which the self-cleavage stood at 0.966.

C32G A59U: the self-cleavage came to 0.206.

For C32G A59G, the self-cleavage was determined as 0.586.

Regarding G31C C45G, the self-cleavage came out at 0.245.

With G31C C45U, the self-cleavage amounted to 0.263.

In the case of G31C C45A, the self-cleavage turned out to be 0.25.

As for C32A C33U, the self-cleavage was 0.231.

As for C32A C33A, the self-cleavage was found to be 0.308.

In the case of C32A G47A, the self-cleavage was 0.877.

Regarding C32A G47C, the self-cleavage stood at 0.869.

C32A U69C: the self-cleavage is 1.03.

In the case of C32U G47U, the self-cleavage worked out at 1.01.
